15 variants from the supplement of paper PMC7125110 can be followed below.

± gives the standard error. Fewer inactive variants are shown than the library holds.

B1: glmS ribozyme (parent)
chain: AUAAAAGCGCCAGAACUACAGAAAUGUAGUUGACGAGGAGGAGGUUUAUCGAAUUUUCGGCGGAUGCCUCCAAA

Holding throughout (settings): with glucosamine-6-phosphate
The variants in data set [1] derive from B1. Kind of data set: self-cleavage kobs at 40 uM GlcN6P; higher = faster cleavage; RNA array. The procedure, abridged: (§1)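 On sequenced MiSeq chips, barcoded ribozyme variants were made in situ by E. coli RNA polymerase and followed at 37 °C through a hybridised Cy3 probe. Glucosamine-6-phosphate was flowed in at 40 μM to 10 mM in HEPES/KCl/Mg(OAc)2 buffer. Exponential fits to normalised per-tile medians gave kobs, and weighted Michaelis–Menten fits gave kcat and KM.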

In data set [2] the parent is B1. The experiment in a line: self-cleavage kobs at 10000 uM GlcN6P; higher = faster cleavage; RNA array. The procedure, abridged:
as §1

In data set [3] the parent is B1. The experiment in a line: self-cleavage kobs at 160 uM GlcN6P; higher = faster cleavage; RNA array. The procedure, abridged: as §1
Data set [4] covers variants of B1. Kind of data set: self-cleavage kobs at 640 uM GlcN6P; higher = faster cleavage; RNA array. In short, it runs like this: as §1
In data set [5] the parent is B1. The experiment in a line: self-cleavage kobs at 2500 uM GlcN6P; higher = faster cleavage; RNA array. In short, it runs like this:
as §1

For the variant AUAAAAGCGCUAGACCUACAGAAAUGUAGUUGACGAGGAGGAGGUUUAUCGAAUUUUCGGCCGAUGCCUCCAAA [C11U A15C G62C], the “self-cleavage kobs at 40 uM GlcN6P” value in data set [1] was less than 1e-05 s⁻¹. The “self-cleavage kobs at 10000 uM GlcN6P” value in data set [2] is less than 1e-05 s⁻¹.

Turning to AUAAAAGCGCCAAAACUACAGAAAUGUAGUUGACGAGGAGGAGGUUUAUAGAAUUUUCGGCGGAUGCCGCCAAA [G13A C50A U69G], the “self-cleavage kobs at 40 uM GlcN6P” value in data set [1] was found to be 4.48e-05 ± 2.2e-05 s⁻¹.

On to AUAAACGCGCCAGAACUACAGAAAUGUAGUUGACGAGGAGGAGGUAUAACGAAUUUUCGGCGGAUGCCUCCAAA [A6C U46A U49A], for which the “self-cleavage kobs at 40 uM GlcN6P” value in data set [1] was less than 1e-05 s⁻¹. Besides, in data set [3], the “self-cleavage kobs at 160 uM GlcN6P” value is less than 1e-05 s⁻¹. The “self-cleavage kobs at 640 uM GlcN6P” value in data set [4] is less than 1e-05 s⁻¹. In data set [5], the “self-cleavage kobs at 2500 uM GlcN6P” value is less than 1e-05 s⁻¹.

AUAAAAGCGUCAAAACUACAGAAAUGUAGUUGACGAGGUGGAGGUUUAUCGAAUUUUCGUCGGAUGCCUCCAAA [C10U G13A A39U G60U]: in data set [1], the “self-cleavage kobs at 40 uM GlcN6P” value was less than 1e-05 s⁻¹.

Turning to AUAAAAGCGCCACAACUACAGAAAUGUAGUUCACGAGGAGGAGGUUCAUCGAAUUUUCGGCGGAUGCCUCCAAA [G13C G32C U47C], the “self-cleavage kobs at 40 uM GlcN6P” value in data set [1] is less than 1e-05 s⁻¹.

As to AUAAAAGCGCCAGAACUACAGAAAUGUAGUGGACGGGGAGGAGGUUUAUCGAAUUUUCGGCGGAUGCCACCAAA [U31G A36G U69A], the “self-cleavage kobs at 40 uM GlcN6P” value in data set [1] is less than 1e-05 s⁻¹. Besides, in data set [2], the “self-cleavage kobs at 10000 uM GlcN6P” value is less than 1e-05 s⁻¹.

Regarding AUAAAAGCGCCAGAACUACAGAAAUGUAGUUGAGGAGGAGGAGGUUUAUCGAAUUUUCGGCGGGUGCCUCCAAA [C34G A64G], the “self-cleavage kobs at 40 uM GlcN6P” value in data set [1] is less than 1e-05 s⁻¹. In addition, the “self-cleavage kobs at 160 uM GlcN6P” value in data set [3] was less than 1e-05 s⁻¹. Also, in data set [4], the “self-cleavage kobs at 640 uM GlcN6P” value is less than 1e-05 s⁻¹. Besides, in data set [5], the “self-cleavage kobs at 2500 uM GlcN6P” value was less than 1e-05 s⁻¹. In addition, the “self-cleavage kobs at 10000 uM GlcN6P” value in data set [2] is less than 1e-05 s⁻¹.

On to AUAAAAGCGCCAGAACUACAGAAAUGUAGUUGACGAGGCGAAGGUUUAUCGAAUUUUCGGCGGAUGCCUCCAAA [A39C G41A], for which the “self-cleavage kobs at 40 uM GlcN6P” value in data set [1] is less than 1e-05 s⁻¹. The “self-cleavage kobs at 160 uM GlcN6P” value in data set [3] is less than 1e-05 s⁻¹. Also, in data set [4], the “self-cleavage kobs at 640 uM GlcN6P” value was less than 1e-05 s⁻¹. In addition, the “self-cleavage kobs at 10000 uM GlcN6P” value in data set [2] is less than 1e-05 s⁻¹.

For AUAAAAGCGCCAGAACUACAGAAAUGUAGUUACCGAGGAGGAGGUUUAUCGAAUUUUCGGCGGAUGCCUCCAAA [G32A A33C], the “self-cleavage kobs at 40 uM GlcN6P” value in data set [1] was less than 1e-05 s⁻¹. In data set [3], the “self-cleavage kobs at 160 uM GlcN6P” value was less than 1e-05 s⁻¹.

With AUAAAAGCGCCAGAACUACAGAAAUGUAGUUGACGAGGAGGAGGUUUAUCUAAUUUUCGGCCGAUGCCUCCAAA [G51U G62C], the “self-cleavage kobs at 40 uM GlcN6P” value in data set [1] is less than 1e-05 s⁻¹. Besides, in data set [4], the “self-cleavage kobs at 640 uM GlcN6P” value is less than 1e-05 s⁻¹. Also, the “self-cleavage kobs at 2500 uM GlcN6P” value in data set [5] was less than 1e-05 s⁻¹. The “self-cleavage kobs at 10000 uM GlcN6P” value in data set [2] was less than 1e-05 s⁻¹.

For AUAAAAGCGCCAGAACUACAGAAAUGUAGUUGACGAGGAGGAGGUGUAUCGGAUUUUCGGAGGAUGCCUCCAAA [U46G A52G C61A], the “self-cleavage kobs at 40 uM GlcN6P” value in data set [1] was less than 1e-05 s⁻¹.

In the case of AUAAAAGCGCCACAACUACAGAAAUGUAGUUGACGAGGAGGAGGUGUAUCGAAUUUUCGGCGGAUGCCUCCAAA [G13C U46G], in data set [1], the “self-cleavage kobs at 40 uM GlcN6P” value was less than 1e-05 s⁻¹. Moreover, in data set [3], the “self-cleavage kobs at 160 uM GlcN6P” value was less than 1e-05 s⁻¹. For the same variant, the “self-cleavage kobs at 640 uM GlcN6P” value in data set [4] was less than 1e-05 s⁻¹.

As for AUAAAGGCGCCAGAACUACAGAAAUGUAGUUGACGAGGAGGAGGUUUAGCGAAUUUUCGGCGGAUGCCUCCAAA [A6G U49G], the “self-cleavage kobs at 40 uM GlcN6P” value in data set [1] is less than 1e-05 s⁻¹. In addition, the “self-cleavage kobs at 2500 uM GlcN6P” value in data set [5] is less than 1e-05 s⁻¹.

For the variant AUAAAAGCGCCACAACUACAGAAAUGUAGCUGACGGGGAGCAGGUUUAUCGAAUUUUCGGCGGAUGCCUACAAA [G13C U30C A36G G41C C70A], the “self-cleavage kobs at 40 uM GlcN6P” value in data set [1] is less than 1e-05 s⁻¹. The “self-cleavage kobs at 160 uM GlcN6P” value in data set [3] was less than 1e-05 s⁻¹. The “self-cleavage kobs at 640 uM GlcN6P” value in data set [4] is less than 1e-05 s⁻¹. Moreover, the “self-cleavage kobs at 2500 uM GlcN6P” value in data set [5] is less than 1e-05 s⁻¹. Besides, in data set [2], the “self-cleavage kobs at 10000 uM GlcN6P” value was less than 1e-05 s⁻¹.

Regarding AUAAAAGCGCCAGAACUACAGAAAUGUAGUUGACGAGGACGAGGUUAAUCGAAUUUUCGGUGGAUGCCUCCAAA [G40C U47A C61U], the “self-cleavage kobs at 40 uM GlcN6P” value in data set [1] was less than 1e-05 s⁻¹.
